Assay results as given in the RNAGym collection of RNA variant scans (doi:10.1073/pnas.2313332121).

B1: TPR t1 (parent)
chain: GACCAAUCUGCCCUCAGAGCUCGAGAACAUCUUCGGAUGCAGAGGAGGCAGGCUUCGGUGGCGCGAUAGCGCCAACGUCCUCAACCUCCAAUGCAUCCCACCACAUGAUGAUGCCUGAAGAGCCUUGGUUUUUUG

Variants of: B1
Assay: polymerase ribozyme fitness, log enrichment relative to wild type (log ratio); higher = more active; in vitro selection for triplet polymerase activity
Outline: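 Libraries of mutants in each subunit of a heterodimeric triplet polymerase ribozyme were generated by PCR and transcribed. In triplicate, each went through one in vitro selection round: annealing with biotinylated primer, partner subunit and triplets; frozen incubation at −7 °C; gel excision of extended constructs; streptavidin-bead capture; RT-PCR. Fitness, taken from Illumina sequencing of input and output libraries, is the logarithm of a genotype's enrichment over wild-type enrichment, averaged across replicates with inverse-variance weights. The logarithm is base 2, and genotypes needed ≥10 input reads and ≥1 read per output to be kept.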

Which “polymerase ribozyme fitness (log ratio)” value does the source give for A5U A6G A46C C115G here?
The value was -2.4.

With C4U G17A as the variant, how does the “polymerase ribozyme fitness (log ratio)” value read?
The value was -2.72.

For A5C C53G C64U C94U, which “polymerase ribozyme fitness (log ratio)” value is on record?
Its value is -1.07.

With A5C U9C C13U as the variant, how does the “polymerase ribozyme fitness (log ratio)” value read?
Its value is -0.074.

Which “polymerase ribozyme fitness (log ratio)” value does the source give for A5G C72G here?
The value was -0.844.

With A5G C72U as the variant, how does the “polymerase ribozyme fitness (log ratio)” value read?
Its value is -0.625.

With A5U A37G as the variant, how does the “polymerase ribozyme fitness (log ratio)” value read?
The value was 0.0705.

For A5G G10A C15A G23C U32G G61C A90C, which “polymerase ribozyme fitness (log ratio)” value is on record?
The value was -6.73.

Which “polymerase ribozyme fitness (log ratio)” value does the source give for A5C C115A here?
Its value is -0.966.

For C4U G10U, which “polymerase ribozyme fitness (log ratio)” value is on record?
Its value is -0.515.

For C4U C70U C85G C86U, which “polymerase ribozyme fitness (log ratio)” value is on record?
The value was -2.03.

Which “polymerase ribozyme fitness (log ratio)” value does the source give for A5C U14C G60U A100C G135U here?
The value was -4.82.

With A5G A16C A41G C62U as the variant, how does the “polymerase ribozyme fitness (log ratio)” value read?
Its value is -2.75.

Which “polymerase ribozyme fitness (log ratio)” value does the source give for A5C A16C G44C here?
The value was -4.17.

For A5C C97G U112A G122U, which “polymerase ribozyme fitness (log ratio)” value is on record?
Its value is -5.96.

For A5C C13U, which “polymerase ribozyme fitness (log ratio)” value is on record?
The value was -0.876.

Which “polymerase ribozyme fitness (log ratio)” value does the source give for C4U G51A G61U C82G C88U G93C here?
The value was -5.15.

For A5U A6G C53U G117A U129A, which “polymerase ribozyme fitness (log ratio)” value is on record?
The value was -2.59.

With C4U G71U C114G U132A as the variant, how does the “polymerase ribozyme fitness (log ratio)” value read?
Its value is -3.02.

Which “polymerase ribozyme fitness (log ratio)” value does the source give for A5C G10A C34A G63U here?
Its value is -4.64.

Which “polymerase ribozyme fitness (log ratio)” value does the source give for A5G U59G G63U C73G A111C here?
The value was -6.

With C4U C72G as the variant, how does the “polymerase ribozyme fitness (log ratio)” value read?
Its value is -0.855.

Which “polymerase ribozyme fitness (log ratio)” value does the source give for C4U C72U here?
The value was -0.857.

For A5G G42U C80A, which “polymerase ribozyme fitness (log ratio)” value is on record?
The value was -5.11.

For A5G G35A U78A C101U, which “polymerase ribozyme fitness (log ratio)” value is on record?
Its value is -3.77.

With A5C A50C A74U U96G as the variant, how does the “polymerase ribozyme fitness (log ratio)” value read?
The value was -3.17.

Which “polymerase ribozyme fitness (log ratio)” value does the source give for C4U C73G A118G here?
Its value is -1.58.

Which “polymerase ribozyme fitness (log ratio)” value does the source give for A5C U92G here?
Its value is -4.05.

For A5C U125G, which “polymerase ribozyme fitness (log ratio)” value is on record?
The value was -0.516.

Which “polymerase ribozyme fitness (log ratio)” value does the source give for A5C C11G A41C G71C C104U here?
Its value is -2.45.

With A5G A6U G61C A66U as the variant, how does the “polymerase ribozyme fitness (log ratio)” value read?
The value was -1.7.

Which “polymerase ribozyme fitness (log ratio)” value does the source give for A5G A111G C123A G128U here?
The value was -2.99.

For A5U A18C G113A A118U U131A, which “polymerase ribozyme fitness (log ratio)” value is on record?
Its value is -4.6.

Which “polymerase ribozyme fitness (log ratio)” value does the source give for A5G C13U G42U C76A here?
The value was -2.01.

Which “polymerase ribozyme fitness (log ratio)” value does the source give for A5G G48U G61A U81A C82A G127C here?
The value was -1.97.

For C4U G10A G52U U81G C123G U125A, which “polymerase ribozyme fitness (log ratio)” value is on record?
Its value is -4.99.

Which “polymerase ribozyme fitness (log ratio)” value does the source give for C4U U96A U106A G122A here?
The value was -0.892.

With A5U A6C A26G G44A U54C A84C C94U as the variant, how does the “polymerase ribozyme fitness (log ratio)” value read?
The value was -4.49.

Which “polymerase ribozyme fitness (log ratio)” value does the source give for A5C G44C A46U U106C here?
Its value is -2.77.

For C4U G71A G77A, which “polymerase ribozyme fitness (log ratio)” value is on record?
The value was -2.96.

Which “polymerase ribozyme fitness (log ratio)” value does the source give for C4U C49U U55G U96A here?
Its value is -2.11.

With C4U G63C C76A A91C A100C C115G C123A as the variant, how does the “polymerase ribozyme fitness (log ratio)” value read?
Its value is -4.89.

Which “polymerase ribozyme fitness (log ratio)” value does the source give for A5G C72A C73U U81G U106G A118U A121C here?
The value was -5.16.

Which “polymerase ribozyme fitness (log ratio)” value does the source give for A5C G45U here?
Its value is -1.36.

Which “polymerase ribozyme fitness (log ratio)” value does the source give for A5C U87G U96G C104U A121C here?
Its value is 0.96.

For A5G C28A U33G U55A C73U A100C C124A, which “polymerase ribozyme fitness (log ratio)” value is on record?
Its value is -5.92.

Which “polymerase ribozyme fitness (log ratio)” value does the source give for A5G C56U here?
Its value is -0.367.

For C4U G120A, which “polymerase ribozyme fitness (log ratio)” value is on record?
Its value is 0.077.

For A5G A18G G44C G48C U55C U59G G117U, which “polymerase ribozyme fitness (log ratio)” value is on record?
Its value is -5.35.

For A5G A37C G58U G60U U87A, which “polymerase ribozyme fitness (log ratio)” value is on record?
The value was -1.82.

For A5G C85G, which “polymerase ribozyme fitness (log ratio)” value is on record?
The value was -2.35.

For A5C C73G, which “polymerase ribozyme fitness (log ratio)” value is on record?
Its value is -0.545.

With A5C C15A C62G A100U G117U as the variant, how does the “polymerase ribozyme fitness (log ratio)” value read?
Its value is -4.14.

For A5G G44A G71U A83C C86U, which “polymerase ribozyme fitness (log ratio)” value is on record?
The value was -1.87.

With C4U U9C C82U as the variant, how does the “polymerase ribozyme fitness (log ratio)” value read?
Its value is 0.225.

With C4U U32A C89A U106C G110A as the variant, how does the “polymerase ribozyme fitness (log ratio)” value read?
The value was -5.64.

For A5G C49G U116G G117C, which “polymerase ribozyme fitness (log ratio)” value is on record?
The value was -3.05.

Which “polymerase ribozyme fitness (log ratio)” value does the source give for A5G A74G A118C here?
The value was -3.85.

With A5C G117U as the variant, how does the “polymerase ribozyme fitness (log ratio)” value read?
The value was -3.58.

Which “polymerase ribozyme fitness (log ratio)” value does the source give for A5C A41U here?
The value was -2.41.

With A5G C13U A46U C56A as the variant, how does the “polymerase ribozyme fitness (log ratio)” value read?
The value was -0.813.

With A5G A121C as the variant, how does the “polymerase ribozyme fitness (log ratio)” value read?
The value was 0.258.

Which “polymerase ribozyme fitness (log ratio)” value does the source give for A5C U9A C13U A74C G110C C123A here?
Its value is -5.77.

Which “polymerase ribozyme fitness (log ratio)” value does the source give for A5C G58A C89A C94G C101U here?
Its value is -5.27.

With C4U G52U G128C U131A as the variant, how does the “polymerase ribozyme fitness (log ratio)” value read?
Its value is -3.4.

For A5C G71U A75U C98U, which “polymerase ribozyme fitness (log ratio)” value is on record?
The value was -1.25.

Which “polymerase ribozyme fitness (log ratio)” value does the source give for C4U G10U C70G here?
Its value is -4.35.

For A5C C8G C11A A37U C123U, which “polymerase ribozyme fitness (log ratio)” value is on record?
Its value is 0.423.

Which “polymerase ribozyme fitness (log ratio)” value does the source give for A5C C72U here?
The value was -1.39.

Which “polymerase ribozyme fitness (log ratio)” value does the source give for A5C U87C C88A G120U here?
Its value is -0.6.

With A5G U38G C114A as the variant, how does the “polymerase ribozyme fitness (log ratio)” value read?
Its value is -2.6.

For C4U C20U U59G C89G U112A U125A U131C, which “polymerase ribozyme fitness (log ratio)” value is on record?
Its value is -2.82.

For A5G C8U A121C, which “polymerase ribozyme fitness (log ratio)” value is on record?
The value was 1.12.

With C4U G52U G61C C124G U131G as the variant, how does the “polymerase ribozyme fitness (log ratio)” value read?
Its value is -0.648.

With A5C C12U C73A C99U as the variant, how does the “polymerase ribozyme fitness (log ratio)” value read?
The value was -4.28.

Which “polymerase ribozyme fitness (log ratio)” value does the source give for A5G C12G G71C A121G here?
The value was 0.0981.

For A5G G113A, which “polymerase ribozyme fitness (log ratio)” value is on record?
Its value is -0.636.

For A5C U96A A121C, which “polymerase ribozyme fitness (log ratio)” value is on record?
The value was 0.399.

Which “polymerase ribozyme fitness (log ratio)” value does the source give for A5C C13A C94A U112G here?
Its value is -2.97.

With A5C C13U A46C C64U U78A C79G G113C as the variant, how does the “polymerase ribozyme fitness (log ratio)” value read?
The value was -5.7.

Which “polymerase ribozyme fitness (log ratio)” value does the source give for A5C A43C G45A C56A A91G G113A here?
The value was -4.37.

With C4U U14C G60A A75U as the variant, how does the “polymerase ribozyme fitness (log ratio)” value read?
Its value is -3.07.

For C4U C40U C62A, which “polymerase ribozyme fitness (log ratio)” value is on record?
Its value is -2.28.

For A5C A24G G48U G110A C124U U131C, which “polymerase ribozyme fitness (log ratio)” value is on record?
The value was -4.58.
